# Literature values in publication PMC7465391, “1,4-Disubstituted 1,2,3-Triazoles as Amide Bond Surrogates for the Stabilisation of Linear Peptides with Biological Activity” (Molecules, 2020).
# Biological target: delta opioid receptor (DOPr) (UniProt P41143)
# Assay: radioligand
substance,measurement,value
Leu-enkephalin,Ki,6.3 nM
